Assay [1] deals with T1, human A-beta(1-40) peptide, monomeric (BAM) (human, biotin at the C-terminus in capture ELISA, SPR and TR-FRET; not biotinylated where coated directly (Example 7)).
T1 construct: synthetic peptide (Anaspec), TFA/HFIP treated to give monomer; also called monomeric A-beta
Put plainly: TR-FRET competition, labelled ABII60A10; extrapolated curve.

Assay [2] addresses T1, human A-beta(1-40) peptide, monomeric …. Put plainly: cell-based or functional assay.
The target is the same in assay [3]. Put plainly: BAM ELISA.
Assay [4] has as its target T2, aggregated A-beta(1-40) peptide (BAA) (human).
T2 construct: also called A-beta peptide aggregates
Put plainly: BAA ELISA.

A further assay concerns the target T3, A-beta(12-28) peptide (human).
T3 construct: Bachem peptide captured on streptavidin chip; also called monomeric A-beta(12-28); central region
T3 peptide: Biotin-VHHQKLVFFAEDVGSNK
In words: SPR on captured A-beta(12-28).

In assay [5] the target is T1, human A-beta(1-40) peptide, monomeric …. Put plainly: TR-FRET competition, labelled ABII42D4. On the technique in general: Time-resolved FRET reads energy transfer from a long-lived donor to a nearby acceptor.
Assay [6] has the same target. In words: BAM ELISA. The source holds these as a separate data set.
Assay [7] deals with T2, aggregated A-beta(1-40) peptide (BAA). In words: BAA ELISA. The source holds these as a separate data set. A general note: ELISA stands for enzyme-linked immunosorbent assay.
The target in assay [8] is T1, human A-beta(1-40) peptide, monomeric …. In words: ABII050 TR-FRET competition assay.

Ends that are not written are not given here. * marks the point of attachment. Biotin = O=C1N[C@H]2[C@H](CS[C@H]2CCCCC(=O)*)N1

Procedure for A-beta(12-28) peptide: After capturing, surfaces are blocked by injecting an excess (200 μg/ml) of d-biotin for 180 s at 5 μl/min. A reference surface is washed and blocked with d-biotin. HBS-EP+buffer is used as the running buffer and experiments are performed at 25° C. For off-rate screening, periplasmic extracts of VHHs are injected at a 10-fold dilution for 2 min at 45 μl/min and are allowed to dissociate for 10 min. […] Between different VHH samples, the surfaces are regenerated with regeneration buffer (50 mM NaOH) for 25 s at 45 μl/min followed by 10 s 6M GuHCl at 45 μl/min if regeneration is incomplete. […] Data are double referenced by subtraction of the curves on the reference channel and of a blank running buffer injection. Sensorgrams are evaluated by fitting a 1:1 dissociation model using the Biacore T100 Evaluation software v1.1.1.

B1: ABII35D2 (VHH)
VHH: EVQLVESGGGLVQAGGSLRLSCVASGLTFSSYNMGWFRQAPGKEREFVAAISRSGGSTYYTDSVKGRFTISRDSSKNTVYLQMNSLKPEDTADYYCAAALFGSAINLLSEYRYWGQGTQVTVSS
In the case of B1, the 50% inhibitory concentration (IC50) (in general, the concentration that gives 50% inhibition) in assay [1] is 773 nM. In addition, the “inhibition of peptide aggregation (ThT fluorescence), 28 µM VHH” value (“inhibition of peptide aggregation” for short) in assay [2] was found to be 73%. Further, the figures for the concentration giving a half-maximal response (EC50) in assay [3] and in assay [4] were 37.5 nM and 12.8 nM, respectively. Also, the binding result with A-beta(12-28) peptide is listed as “binds”.

B2: ABII111B5_N106T (VHH)
VHH: EVQLVESGGGLVLAGGSLRLSCVHSGPTFRTDTMGWFRQAPGKEREFVAAVTWNSGRINYADSVKGRFTVSRDNTRNAAYLQMSGLKDEDTAVYYCTAHRFVVGGTMVEDWRYWGQGTQVTVSS
notes: targeted mutant
In the case of B2, the IC50 in assay [5] came out at 9.2 nM.

B3: ABII111E5cl1 (VHH)
VHH: EVQLVESGGGLVLAGGSLRLSCVHSGPTFLTDTMGWFRQAPGKEREFVAAVTWNSGRINYADSVKGRFTVSRDNTRNAAYLQMSGLKDEDTAVYYCTAHRFVVGGREVQDWRYWGQGTQVTVSS
notes: c-myc and (His)6 tags
The molecule B3 yielded an IC50 in assay [5] of 8.8 nM.

B4: ABIIPMP111C6 (VHH)
VHH: EVQLVESGGGLVLAGGSLRLSCVHSGPTFWTDTMGWFRQAPGKEREFVAAVTWNSGRLNYADSVKGRFTVSRDNTRNAAYLQMSGLKDEDTAVYYCTAHRQVVGGVQVLDWRYWGQGTQVTVSS
notes: c-myc and (His)6 tags
In assay [5], B4 registered a half-inhibitory concentration (IC50) of 6 nM.

B5: ABII111B5_N106V (VHH)
VHH: EVQLVESGGGLVLAGGSLRLSCVHSGPTFRTDTMGWFRQAPGKEREFVAAVTWNSGRINYADSVKGRFTVSRDNTRNAAYLQMSGLKDEDTAVYYCTAHRFVVGGVMVEDWRYWGQGTQVTVSS
notes: targeted mutant
For the molecule B5, the half-maximal inhibitory concentration (IC50) in assay [5] turned out to be 10 nM.

B6: ABII111B5_R30K (VHH)
VHH: EVQLVESGGGLVLAGGSLRLSCVHSGPTFKTDTMGWFRQAPGKEREFVAAVTWNSGRINYADSVKGRFTVSRDNTRNAAYLQMSGLKDEDTAVYYCTAHRFVVGGNMVEDWRYWGQGTQVTVSS
notes: targeted mutant
Regarding B6, the IC50 in assay [5] stood at 5.3 nM.

B7: ABIIPMP111B9 (VHH)
VHH: EVQLVESGGGLVLAGGSLRLSCVHSGPTFGTDTMGWFRQAPGKEREFVAAVTWNSGRANYADSVKGRFTVSRDNTRNAAYLQMSGLKDEDTAVYYCTAHRFVVGGGCVKDWRYWGQGTQVTVSS
notes: c-myc and (His)6 tags
Regarding B7, in [5], the IC50 was found to be 19 nM.

B8: ABIIPMP111B4 (VHH)
VHH: EVQLVESGGGLVLAGGSLRLSCVHSGPTFWTDTMGWFRQAPGKEREFVAAVTWSSGRANYADSVKGRFTVSRDNTRNAAYLQMSGLKDEDTAVYYCTAHRGVVGGWVVVDWRYWGQGTQVTVSS
notes: c-myc and (His)6 tags
Molecule B8 returned an IC50 in assay [5] of 5.1 nM.

B9: ABIIPMP111E4 (VHH)
VHH: EVQLVESGGGLVLAGGSLRLSCVHSGPTFSTDTMGWFRQAPGKEREFVAAVTWNSGRTNYADSVKGRFTVSRDNTRNAAYLQMSGLKDEDTAVYYCTAARLTVGSLSVGDWRYWGQGTQVTVSS
notes: c-myc and (His)6 tags
Molecule B9 registered a concentration for half-maximal inhibition (IC50) in [5] of 6.1 nM.

B10: ABIIPMP111C4 (VHH)
VHH: EVQLVESGGGLVLAGGSLRLSCVHSGPTFLTDTMGWFRQAPGKEREFVAAVTWNSGRANYADSVKGRFTVSRDNTRNAAYLQMSGLKDEDTAVYYCTAHRSVVGGVGVWDWRYWSQGTQVTVSS
notes: c-myc and (His)6 tags
With B10, the IC50 in [5] stood at 8.6 nM.

B11: ABII111B5_R30W (VHH)
VHH: EVQLVESGGGLVLAGGSLRLSCVHSGPTFWTDTMGWFRQAPGKEREFVAAVTWNSGRINYADSVKGRFTVSRDNTRNAAYLQMSGLKDEDTAVYYCTAHRFVVGGNMVEDWRYWGQGTQVTVSS
notes: targeted mutant
In [5], B11 registered a concentration for half-maximal inhibition (IC50) of 5 nM.

B12: ABIIPMP111F2 (VHH)
VHH: EVQLVESGGGLVLAGGSLRLSCVHSGPTFSTDTMGWFRQAPGKEREFVAAVTWNSGRTNYADSVKGRFTVSRDNTRNAAYLQMSGLKDEDTAVYYCTANRHSVGRLSVGDWRYWGQGSQVTVSS
notes: c-myc and (His)6 tags
B12 registered an IC50 in assay [5] of 3.4 nM.

B13: ABII61F6 (VHH)
VHH: EVQLVESGGGLVQTGGSLRLSCAASGSTVNINAMGWYRQAPGKQRELVAIINKRGVTNYADSTEGRFTISRDNSKRTLYLQMNSLKPEDTAVYYCNAVVGRYGRTYGYWGQGTQVTVSS
Turning to B13, the concentration for half-maximal inhibition (IC50) in [1] was 967 nM. In addition, the EC50 (as a rule, the concentration that produces a half-maximal response) in assay [3] stood at 469 nM; in [4], 14.5 nM. Besides, the binding result with A-beta(12-28) peptide is “binds”.

B14: reference VHH 1B (VHH)
VHH: QVQLQESGGGLVQPGGSLRLSCAASEFTLDYYSIAWFRQAPGKEREGVSCISSYDGSTSYADSVKGRFTISRDNAKNTVYLQMNSLKPEDTAIYYCAAGIRDWATLREYEYDDWGQGTQVTVSS
notes: from WO2007/35092
As for B14, the binding result in assay [6] and in assay [7] was “no binding” throughout.

B15: reference VHH 31-1 (VHH)
VHH: EVQLQASGGGSVQPGGSLRLSCAASGFIFGWSTMSWVRQAPGKGLEWVSTISGGGSATTYTDSVKGRFTISRDRAKNTLYLQMNSLKPEDTAIYYCNADVSTGFRYQRKDYWGRGTQVTVSS
notes: from WO2004/44204; also called V31-1
B15: the binding result in assay [6] and in [7] was “no binding” throughout.

B16: reference VHH 3A (VHH)
VHH: AVQLVESGGGLVRDGDSLRLSCAASGRTFSSYVMGWFRQAPGKEREFVAAIGWSGGSTAYADSVKGRFTISRDNARNTVYLQMNSLKPEDTAVYYCASAPTRWVPRDSRFYDRWGQGTRVTVSS
notes: from WO2007/35092
B16: the binding result in assay [6] and in assay [7] was “no binding” each time.

B17: ABII42E10 (VHH)
VHH: EVQLVESGGGLVQPGGSLRLSCAASGLTFTLYTMGWFRQAPGKEREFVAAISASGGTTYYADSVKGRFALSRDNAKNTVFLQMNTLKPEDTAEYLCAAAFRGFAINTPTSYNYWGQGTQVTVSS
Consider B17, for which the IC50 in assay [1] is 205 nM. For the same molecule, the “inhibition of peptide aggregation” value in assay [2] was found to be 75%. Further, the results for the EC50 in assay [3] and in assay [4] were 17.5 nM and 2.6 nM, respectively. Besides, the binding result in the assay with A-beta(12-28) peptide is on record as “binds”.

B18: ABII1E11 (VHH)
VHH: EVQLVESGGGLVQPGGSLRLSCAASGRTFSDYNMGWFHQAPGKEREIVAAISRSGRSTYYTVSVEGRFTISRDNAKNTVDLEMNSLKPEDTGIYYCAANSAGRAINLPLYKYWGQGTQVTVSS
As to B18, in [1], the concentration for half-maximal inhibition (IC50) was 844 nM. Also, the figures for the concentration giving a half-maximal response (EC50) in [3] and in [4] were 27.3 nM and 19.2 nM, respectively. The binding result with A-beta(12-28) peptide is reported as “binds”.

B19: ABII35G2 (VHH)
VHH: EVQLVESGGGLVQAGGSLRLSCVASGRTFSNYGMGWFRQAPGKDREFVAAISRSGGTTYYEDDVKGRFTISRDNAKNSVYLQMNSLKPEDTAVYYCAARPSYVAVNIAASYNNWGQGTQVTVSS
For B19, the IC50 in assay [1] was 645 nM. Further, the “inhibition of peptide aggregation” value in assay [2] amounted to 76%. Also, the 50% effective concentration (EC50) in [3] was found to be 10.7 nM; in assay [4], 5.4 nM. Further, the binding result in the assay with A-beta(12-28) peptide is given as “binds”.

B20: ABII315-PEG40 (designed binder)
chain: EVQLLESGGGLVQPGGSLRLSCAASGRTFNNYNMGWFRQAPGKGREFVAAVSRSGVSTYYADSVKGRFTISRDNSKNTVYLQMNSLRPEDTAVYYCAAAYRGTAINVRRSYSSWGQGTLVTVSSGGGGCGGGSEVQLLESGGGLVQPGGSLRLSCVHSGPTFRTDTMGWFRQAPGKGREFVAAVTWNSGRINYADSVKGRFTISRDNSKNTAYLQMNSLRPEDTAVYYCAAHRFVVGGNRVEDWRYWGQGTLVTVSS
modifications: PEG40 on the Cys at position 5 of the 9GS linker
notes: 059-9GSC-035; purified as His6-tagged construct before PEGylation
In turn, B20 returned an IC50 in assay [8] of 0.31 nM.

B21: ABII42F5 (VHH)
VHH: EVQLVESGGGLVQAGDSLRLSCTASGRTFTDYNIGWFCQAPGKEREFVAAISGSGGSTYYADSAKGRFTISRDNAKNTVYLQMNSLKPEDTAVYACAAAQRRLAVNVDTSYNVWGQGTQVTVSS
B21: the half-maximal inhibitory concentration (IC50) in assay [1] is 228 nM. Besides, in [2], the “inhibition of peptide aggregation” value stood at 79%. Also, the EC50 in [3] turned out to be 41.1 nM; in assay [4], 20 nM. For the same molecule, in the assay with A-beta(12-28) peptide, the binding result is “binds”.

B22: ABII35C7 (VHH)
VHH: EVQLVESGGGLVQPGGSLRLSCAASGRTFSIYNMGWFRQAPGKEREFVAAISRSGSSTYYGDSVKGRFTISRDNAKKTVYLQMNSLKPEDTAVYHCAAARFGTPINTRGSYDYWGQGTQVTVSS
For B22, the IC50 in assay [1] was 206 nM. In addition, the “inhibition of peptide aggregation” value in assay [2] was 82%. Moreover, the concentration for a half-maximal effect (EC50) in assay [3] amounted to 1.9 nM; in assay [4] it was 1.3 nM. Besides, the binding result in the assay with A-beta(12-28) peptide is recorded as “binds”.

B23: reference VHH 11G (VHH)
VHH: QVQLQESGGGLVQPGGSLRLSCAASGSIFSINTMAWYRQAPGKERDLVAAIISSGSTNYADSVKGRFTISRDNTKNTVYLQMNSLKLEDTAVYYCNAAIRRSVIDAWGAYWGQGTQVTVSS
notes: from WO2007/35092
Regarding B23, the binding result in [6] and in [7] was “no binding” throughout.
